{"source": "paper PMC11997982", "key": {"Udorn His-GST-ED WT [1]": {"molecular_target": "T1, Udorn His-GST-ED WT (Influenza A virus A/Udorn/307/1972, UniProt P03495 86-237)", "T1 sequence (P03495 86-237)": "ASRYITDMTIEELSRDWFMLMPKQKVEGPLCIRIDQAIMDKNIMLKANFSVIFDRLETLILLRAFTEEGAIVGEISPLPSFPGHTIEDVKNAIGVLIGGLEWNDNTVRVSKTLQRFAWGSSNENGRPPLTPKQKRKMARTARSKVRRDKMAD", "assay": "fluorescence polarization; protein prep B, A260/280 0.85; […], pH 8.0, 1 h at room temperature; […]", "conditions": "protein: recombinant; tags: N-term 10xHis-GST; label: 5'-FAM (FITC) on both strands; blunt"}, "His-RBD WT [2]": {"molecular_target": "T2, His-RBD WT (Influenza A virus A/Brevig …, UniProt Q99AU3 1-85)", "T2 sequence (Q99AU3 1-85)": "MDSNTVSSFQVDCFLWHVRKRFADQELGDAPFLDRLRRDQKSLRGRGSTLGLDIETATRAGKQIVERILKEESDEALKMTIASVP", "assay": "fluorescence polarization; biphasic, first transition; […], pH 8.0, 1 h at room temperature; […]", "conditions": "protein: recombinant; tags: N-term 10xHis; chain copies: 2; label: 5'-FAM (FITC) on both strands; blunt"}, "His-RBD WT [3]": {"molecular_target": "T2, His-RBD WT", "assay": "fluorescence polarization; biphasic, second transition; […], pH 8.0, 1 h at room temperature; […]", "conditions": "protein: recombinant; tags: N-term 10xHis; chain copies: 2; label: 5'-FAM (FITC) on both strands; blunt"}, "His-GST-ED WT [4]": {"molecular_target": "T3, His-GST-ED WT (Influenza A virus A/Brevig …, UniProt Q99AU3 86-230)", "T3 sequence (Q99AU3 86-230)": "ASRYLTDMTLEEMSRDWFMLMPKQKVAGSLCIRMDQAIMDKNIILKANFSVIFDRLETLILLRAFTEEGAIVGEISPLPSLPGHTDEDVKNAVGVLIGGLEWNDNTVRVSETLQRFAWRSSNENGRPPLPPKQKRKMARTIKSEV", "assay": "fluorescence polarization; […], pH 8.0, 1 h at room temperature; […]", "conditions": "protein: recombinant; tags: N-term 10xHis-GST; chain copies: 3; label: 5'-FAM (FITC) on both strands; blunt"}, "Udorn His-GST-ED WT [5]": {"molecular_target": "T1, Udorn His-GST-ED WT", "assay": "fluorescence polarization; […], pH 8.0, 1 h at room temperature; […]", "conditions": "protein: recombinant; tags: N-term 10xHis-GST; label: 5'-FAM (FITC) on both strands; blunt"}, "GST-RBD WT [6]": {"molecular_target": "T4, GST-RBD WT (Influenza A virus A/Brevig …, UniProt Q99AU3 1-85)", "T4 sequence (Q99AU3 1-85)": "as the sequence (Q99AU3 1-85) above", "assay": "fluorescence polarization; […], pH 8.0, 1 h at room temperature; […]", "conditions": "protein: recombinant; tags: GST; chain copies: 2; label: 5'-FAM (FITC) on both strands; blunt"}, "His-GST-RBD WT [7]": {"molecular_target": "T5, His-GST-RBD WT (Influenza A virus A/Brevig …, UniProt Q99AU3 1-85)", "T5 sequence (Q99AU3 1-85)": "as above", "assay": "fluorescence polarization; […], pH 8.0, 1 h at room temperature; […]", "conditions": "protein: recombinant; tags: N-term 10xHis-GST; chain copies: 2; label: 5'-FAM (FITC) on both strands; blunt"}, "His-RBD WT [8]": {"molecular_target": "T2, His-RBD WT", "assay": "EMSA (fEMSA); […], pH 8.0, 1 h at room temperature; […]", "conditions": "protein: recombinant; tags: N-term 10xHis; chain copies: 2; label: 5'-FAM (FITC) on both strands; blunt"}, "His-GST-ED WT [9]": {"molecular_target": "T3, His-GST-ED WT", "assay": "EMSA (fEMSA); […], pH 8.0, 1 h at room temperature; […]", "conditions": "protein: recombinant; tags: N-term 10xHis-GST; chain copies: 3; label: 5'-FAM (FITC) on both strands; blunt"}, "Udorn His-GST-ED WT [10]": {"molecular_target": "T1, Udorn His-GST-ED WT", "assay": "EMSA (fEMSA); […], pH 8.0, 1 h at room temperature; […]", "conditions": "protein: recombinant; tags: N-term 10xHis-GST; label: 5'-FAM (FITC) on both strands; blunt"}, "GST-RBD WT [11]": {"molecular_target": "T4, GST-RBD WT", "assay": "EMSA (fEMSA); […], pH 8.0, 1 h at room temperature; […]", "conditions": "protein: recombinant; tags: GST; chain copies: 2; label: 5'-FAM (FITC) on both strands; blunt"}, "His-GST-RBD WT [12]": {"molecular_target": "T5, His-GST-RBD WT", "assay": "EMSA (fEMSA); […], pH 8.0, 1 h at room temperature; […]", "conditions": "protein: recombinant; tags: N-term 10xHis-GST; chain copies: 2; label: 5'-FAM (FITC) on both strands; blunt"}}}
{"binder": "FAM-dsRNA 16 bp (dsRNA) RNA 1: CCAUCCUCUACAGGCG RNA 2: CGCCUGUAGAGGAUGG", "values": [{"measurement": "Kd", "setting": "Udorn His-GST-ED WT [1]", "value": "196 ± 23", "unit": "nM"}, {"measurement": "Kd", "setting": "His-RBD WT [2]", "value": "83 ± 11", "unit": "nM"}, {"measurement": "Kd", "setting": "His-RBD WT [3]", "value": "2160 ± 460", "unit": "nM"}, {"measurement": "Kd", "setting": "His-GST-ED WT [4]", "value": "1900 ± 250", "unit": "nM"}, {"measurement": "Kd", "setting": "Udorn His-GST-ED WT [5]", "value": "180 ± 21", "unit": "nM"}, {"measurement": "Kd", "setting": "GST-RBD WT [6]", "value": "76 ± 5", "unit": "nM"}, {"measurement": "Kd", "setting": "His-GST-RBD WT [7]", "value": "125 ± 9", "unit": "nM"}, {"measurement": "Kd", "setting": "His-RBD WT [8]", "value": "55 ± 16", "unit": "nM"}, {"measurement": "Kd", "setting": "His-GST-ED WT [9]", "value": "3.5 ± 0.8", "unit": "µM"}, {"measurement": "Kd", "setting": "Udorn His-GST-ED WT [10]", "value": "170 ± 35", "unit": "nM"}, {"measurement": "Kd", "setting": "GST-RBD WT [11]", "value": "100 ± 32", "unit": "nM"}, {"measurement": "Kd", "setting": "His-GST-RBD WT [12]", "value": "180 ± 42", "unit": "nM"}]}
